Measured values taken from article PMC7618375, “Structure and Methyl-lysine Binding Selectivity of the HUSH Complex Subunit MPP8” (Journal of molecular biology, 2024).

Tests used:
[1] = molecular target: MPP8 chromodomain (CD, residues 55-116) (human) (UniProt Q99549); assay: ITC; 750 uM peptide in the syringe titrated into 50 uM MPP8 CD in the cell; 50 mM HEPES pH 7.4, 0.1 M NaCl, 0.5 mM TCEP, 25 °C; single-site model
Dnmt3a (Homo sapiens) = Dnmt3a (Homo sapiens) (UniProt Q9Y6K1); conditions: cited from earlier work

| Substance | Kd [1] [nM] | Kd (Dnmt3a (Homo sapiens)) [nM] |
| --- | --- | --- |
| G9a peptide trimethylated at K185 | 1310 |  |
| GLP peptide residues 199-211 with lysine 205 trimethylated (from UniProt Q9H9B1 199-211) | 337 |  |
| Histone H3 peptide trimethylated at lysine 27 | > 50000 |  |
| MPP8 chromodomain (from UniProt Q99549) |  | 12000 |
| SETDB1 peptide trimethylated at K1178 | > 50000 |  |

Further substances by falling Kd [1], results first:

| Kd [1] [nM] | Substance | Kd (Dnmt3a (Homo sapiens)) [nM] |
| --- | --- | --- |
| 1550 | SETDB1 peptide trimethylated at K1170 |  |
| 769 | Histone H3 peptide trimethylated at lysine 9 |  |
| 193 | ATF7IP N-terminal tail peptide trimethylated at lysine 16 |  |
